This note sets out measurements from patent publication US20260008815A1, “CYCLIC PEPTIDE OR SALT THEREOF, AND USES THEREOF” (FUJIFILM Corporation, priority 2023, published 2026).

Bridge positions count the residues as written; N and C are the ends. Ends that are not written are not given here. COCH2 = acetyl group that carries the bridge

T1 sequence (P21802 with tags, fused parts or gaps limits assumed): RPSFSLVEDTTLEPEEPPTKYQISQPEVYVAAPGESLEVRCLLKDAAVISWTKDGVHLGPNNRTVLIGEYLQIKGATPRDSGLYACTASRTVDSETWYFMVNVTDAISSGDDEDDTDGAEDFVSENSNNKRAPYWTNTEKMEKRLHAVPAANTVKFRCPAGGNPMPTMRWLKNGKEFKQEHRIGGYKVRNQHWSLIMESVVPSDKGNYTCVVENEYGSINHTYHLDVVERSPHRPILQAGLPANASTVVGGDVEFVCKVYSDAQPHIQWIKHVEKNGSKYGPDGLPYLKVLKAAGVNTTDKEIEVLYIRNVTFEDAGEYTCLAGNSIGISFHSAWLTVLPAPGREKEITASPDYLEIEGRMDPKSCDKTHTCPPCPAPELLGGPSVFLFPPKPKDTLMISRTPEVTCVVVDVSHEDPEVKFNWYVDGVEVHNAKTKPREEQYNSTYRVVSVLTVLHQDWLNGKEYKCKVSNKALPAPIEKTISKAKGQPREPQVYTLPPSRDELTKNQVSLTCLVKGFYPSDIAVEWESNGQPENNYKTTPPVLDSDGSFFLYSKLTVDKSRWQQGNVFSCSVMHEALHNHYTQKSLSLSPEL

This test has as its target T1, Recombinant Human FGFR2 alpha (IIIc) Fc Chimera Protein (Homo sapiens, UniProt P21802).
T1 construct: Fc (chimera); purchased R&D systems 712-FR-050
Nature of the test: ELISA binding affinity of enzymatically synthesized peptide to FGFR. To be noted: ELISA luminescence signal at 10 nmol/L peptide, SEQ ID NO: 47 at 10 nmol/L standardized to 1; enzyme synthesis product. The method in brief: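 FGFR2 alpha (IIIc) Fc chimera (5 ng/well) was immobilized, and Myc-tagged peptide was bound 3 h at room temperature, then detected with anti-Myc antibody (2 h) and chemiluminescent substrate. Signal was corrected against FGFR-free wells. Score A–D was the luminescence at 10 nmol/L peptide, normalized to cyclic peptide SEQ ID NO: 47.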
(In general: An ELISA detects its analyte on a solid surface through an enzyme-linked reagent.)
Take “375 (DCLQFIYQYLYTVK(COCH2)I; thioether 2-14) [compound 375]”: the “Evaluation result of binding affinity to FGFR” value (“Evaluation result” for short) is “C (0.1 or more and less than 0.5)”. On to “376 (QCIQDLYLYLYFLK(COCH2)T; thioether 2-14 (inferred)) [compound 376]”, for which the “Evaluation result” value was “C (0.1 or more and less than 0.5)”.

Regarding “377 (HCLHYLYQYLYTVK(COCH2)Y; thioether 2-14 (inferred)) [compound 377]”, the “Evaluation result” value was “C (0.1 or more and less than 0.5)”.

For “378 (QCPRQLYYLYLYLSK(COCH2)I; thioether 2-15 (inferred)) [compound 378]”, the “Evaluation result” value is “C (0.1 or more and less than 0.5)”. For “379 (NCQLYYTYLYLHTLK(COCH2)F; thioether 2-15 (inferred)) [compound 379]”, the “Evaluation result” value was “C (0.1 or more and less than 0.5)”. For the substance “380 (YCPPQLVYLYQYLYK(COCH2)L; thioether 2-15 (inferred)) [compound 380]”, the “Evaluation result” value is “C (0.1 or more and less than 0.5)”. With “381 (VCQEYYLYQYVYELK(COCH2)Y; thioether 2-15 (inferred)) [compound 381]”, the “Evaluation result” value is “C (0.1 or more and less than 0.5)”. As for “382 (PCDRQLYYLYQYIHK(COCH2)T; thioether 2-15 (inferred)) [compound 382]”, the “Evaluation result” value was “C (0.1 or more and less than 0.5)”.

As to “383 (QCQLYYLYQYAYALK(COCH2)V; thioether 2-15 (inferred)) [compound 383]”, the “Evaluation result” value is “C (0.1 or more and less than 0.5)”. With “384 (QCQLYYLYQYTIAIK(COCH2)T; thioether 2-15 (inferred)) [compound 384]”, the “Evaluation result” value was “C (0.1 or more and less than 0.5)”. Take “385 (QCAYYHLYQYLHQLK(COCH2)V; thioether 2-15 (inferred)) [compound 385]”: the “Evaluation result” value is “B (0.5 or more and less than 0.7)”.

On to “386 (RCHHNFHHARQWGFFHHYK(COCH2)R; thioether 2-19 (inferred)) [compound 386]”, for which the “Evaluation result” value is “B (0.5 or more and less than 0.7)”.

In the case of “387 (RCHHNFHHARQHRFFHHYK(COCH2)R; thioether 2-19 (inferred)) [compound 387]”, the “Evaluation result” value is “C (0.1 or more and less than 0.5)”. On to “388 (RCHHNFHHARQHGFFYHYK(COCH2)R; thioether 2-19 (inferred)) [compound 388]”, for which the “Evaluation result” value is “C (0.1 or more and less than 0.5)”. With “389 (RCHHNFHHARQHGFFWHYK(COCH2)R; thioether 2-19 (inferred)) [compound 389]”, the “Evaluation result” value is “C (0.1 or more and less than 0.5)”. For the substance “390 (YCEENYLDPEQYQYFHYFK(COCH2)R; thioether 2-19 (inferred)) [compound 390]”, the “Evaluation result” value was “C (0.1 or more and less than 0.5)”.

On to “391 (YCEENYLDPEQYQYFHYFK(COCH2)H; thioether 2-19 (inferred)) [compound 391]”, for which the “Evaluation result” value is given as “A (0.7 or more)”. Take “392 (YCHENYLDPEQYQYFHYFK(COCH2)Y; thioether 2-19 (inferred)) [compound 392]”: the “Evaluation result” value is on record as “A (0.7 or more)”. Turning to “393 (YCHENYLDPEQHQYFHYFK(COCH2)Y; thioether 2-19 (inferred)) [compound 393]”, the “Evaluation result” value was “C (0.1 or more and less than 0.5)”. To “394 (YCHENYLDPEQYQYFHYFK(COCH2)R; thioether 2-19 (inferred)) [compound 394]” belongs “B (0.5 or more and less than 0.7)”; to “395 (YCHENYLDPEQYQYFHYFK(COCH2)H; thioether 2-19 (inferred)) [compound 395]”, “A (0.7 or more)”. To “396 (YCEENYLDPEQHQYFIYFK(COCH2)R; thioether 2-19 (inferred)) [compound 396]” belongs “B (0.5 or more and less than 0.7)”; to “397 (YCEENYLDPEQHQYFIYFK(COCH2)H; thioether 2-19 (inferred)) [compound 397]”, “A (0.7 or more)”. To “398 (YCHENYLDPEQHQYFIYFK(COCH2)R; thioether 2-19 (inferred)) [compound 398]” belongs “B (0.5 or more and less than 0.7)”; to “399 (QK(COCH2)PQNFINPVQWRYFQHYCN; thioether 2-19 (inferred)) [compound 399]”, “C (0.1 or more and less than 0.5)”.

Turning to “400 (VCQQDNYFYPQQWFFFVHYK(COCH2)H; thioether 2-20 (inferred)) [compound 400]”, the “Evaluation result” value is given as “A (0.7 or more)”. For the substance “401 (QCQFLNYVNHVQWHYFWVFK(COCH2)S; thioether 2-20 (inferred)) [compound 401]”, the “Evaluation result” value is “C (0.1 or more and less than 0.5)”. For “402 (PCEVYNYWYPTQWFFFTQFK(COCH2)K; thioether 2-20 (inferred)) [compound 402]”, the “Evaluation result” value is reported as “A (0.7 or more)”. As to “403 (ACRRANWIHPIQWFFFHVYK(COCH2)H; thioether 2-20 (inferred)) [compound 403]”, the “Evaluation result” value is “B (0.5 or more and less than 0.7)”. As to “404 (DCIRPYDQLQLIYQYLYQLK(COCH2)K; thioether 2-20 (inferred)) [compound 404]”, the “Evaluation result” value was “C (0.1 or more and less than 0.5)”. In the case of “405 (QCLTQRVYLRQLAYYRLYRK(COCH2)I; thioether 2-20 (inferred)) [compound 405]”, the “Evaluation result” value was “C (0.1 or more and less than 0.5)”.

“406 (PCEQQNFHSVIQWHFFAQYK(COCH2)N; thioether 2-20 (inferred)) [compound 406]”: the “Evaluation result” value is reported as “A (0.7 or more)”. In the case of “407 (LCVQGNYQNPTQWYYFQLYK(COCH2)W; thioether 2-20 (inferred)) [compound 407]”, the “Evaluation result” value was “B (0.5 or more and less than 0.7)”. To “408 (HCSQHQTTYYQIYAYLHAIK(COCH2)I; thioether 2-20 (inferred)) [compound 408]” belongs “C (0.1 or more and less than 0.5)”; to “409 (LCNNWENYFDWLQWSYYIAYK(COCH2)E; thioether 2-21 (inferred)) [compound 409]”, “A (0.7 or more)”; to “410 (WCQESSNYLAPLQWYFFNWYK(COCH2)T; thioether 2-21 (inferred)) [compound 410]”, “A (0.7 or more)”.

Consider “411 (TCVDKDNWYNHVQWQYFFLYK(COCH2)Q; thioether 2-21 (inferred)) [compound 411]”, for which the “Evaluation result” value was “A (0.7 or more)”. As to “412 (QCEYALQYYRFYVAQRHWVDKL; Description of Artificial Sequence: Cyclic peptide) [compound 412]”, the “Evaluation result” value was “C (0.1 or more and less than 0.5)”.
